According to the supplement of paper PMC9732359:
± gives the uncertainty stated by the source.

Test: protein stability index of a GFP-peptide fusion (yeast GPS) (PSI 1-4); higher = more stable; sorted into four equal gates, so the index is relative within each strain
Method in brief: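 Mid-log yeast cultures in leucine-free medium, carrying a pooled plasmid library, were sorted into four equal gates by their GFP/Cherry fluorescence ratio. Each plasmid expressed Cherry along with GFP fused upstream of a tiled 17-residue yeast protein peptide. Plasmids recovered from each gate were PCR-amplified and Illumina-sequenced, with reads assigned to strains by barcodes. The protein stability index was obtained by summing each gate's read frequency weighted by its gate number.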

Sequence | protein stability index (doa10∆) | protein stability index (pdr5∆) | protein stability index (san1∆) | protein stability index (ubr1∆)
ARIKDAFITQLESSITD [YJL039C/NUP192] | 2.83 ± 0.11 | 2.25 ± 0.1 | 1.14 ± 0.11 | –
AGKWSSKYLIKQIDIPN [ECM29] | 1.55 ± 0.068 | 1.86 ± 0.088 | 2.15 ± 0.087 | 2.05 ± 0.049
DELETKAEKKVELHGKR [PRP8] | 2.84 ± 0.19 | 2.95 ± 0.17 | 3.4 ± 0.26 | 2.63 ± 0.18
NAKDKERLQLLEDVVGA [SMC3] | 3.32 ± 0.19 | 3.38 ± 0.13 | 3.01 ± 0.071 | 3.21 ± 0.11
TLFVRDQDSAVVSSNIK [QCR2] | 2.67 ± 0.23 | 2.52 ± 0.2 | – | 2.67 ± 0.17
KTAKEVAGAIRAGIIIA [RPS2] | 2.49 ± 0.14 | 3.16 ± 0.17 | 2.69 ± 0.24 | 3.07 ± 0.1
VKAFLSIFEDAIKELNY [NUT1] | 2.04 ± 0.091 | 1.73 ± 0.087 | 2.55 ± 0.19 | 2.62 ± 0.19
HDELDMNECIADQDMED [ESC2] | 3.22 ± 0.092 | 2.64 ± 0.11 | 2.87 ± 0.07 | 2.97 ± 0.074
ELLREWLETYSENRDKF [IRR1] | 3.34 ± 0.066 | 3.43 ± 0.098 | 3.61 ± 0.078 | 3.51 ± 0.056
YKCTAAMEKYLLSKSKI [MTW1] | 2.21 ± 0.038 | 2.58 ± 0.056 | 2.44 ± 0.049 | 2.69 ± 0.03
KTMIKTIEKDKMKIQET [SMC2] | 2.85 ± 0.17 | 1.86 ± 0.14 | 1.64 ± 0.12 | 2.04 ± 0.062
KNPKFSNAFYSVLRDTL [SMC4] | 2.1 ± 0.084 | 2.34 ± 0.11 | 2.13 ± 0.093 | 2.13 ± 0.11
HGMTLRESFEDNVVRFL [RPO21] | 3.27 ± 0.098 | 3.09 ± 0.12 | 3.29 ± 0.089 | 3.17 ± 0.078
QLKAEEKKILNQFLKIK [SMC1] | 2.8 ± 0.045 | 3.19 ± 0.1 | 2.84 ± 0.09 | 2.99 ± 0.078
IGSNGSGKSNFFAAIRF [SMC3] | 3.03 ± 0.068 | 3.07 ± 0.066 | 3.02 ± 0.05 | 3.05 ± 0.039
WGMEPLEDYVPHQSPDA [RPB2] | 2.85 ± 0.11 | 3.3 ± 0.13 | 2.98 ± 0.081 | 2.98 ± 0.076
VKDELMFSPLVDSGSND [RPO21] | 3.11 ± 0.065 | 3.17 ± 0.053 | 3.22 ± 0.047 | 3.21 ± 0.048
GIKPPKGVLLYGPPGTG [RPT4] | 2.73 ± 0.13 | 2.62 ± 0.072 | 2.22 ± 0.22 | 2.01 ± 0.075
GGQGNTDDYFEELRDLY [FAS1] | 3.22 ± 0.088 | 3.51 ± 0.073 | 3.3 ± 0.057 | 3.28 ± 0.059
ISSSAIPYSRNAPAWFK [RPS13] | 2.33 ± 0.09 | 2.9 ± 0.071 | 2.21 ± 0.086 | 2.37 ± 0.063
KSKSSLDGKFSLFHTAV [RPN2] | 2.86 ± 0.096 | 2.8 ± 0.072 | 2.86 ± 0.067 | 2.77 ± 0.067
RSNFRVNLSQEALQYDP [SNU114] | 2.69 ± 0.074 | 2.31 ± 0.09 | 2.93 ± 0.047 | 3.1 ± 0.088
LVETCLNDLVESSFIEI [BRR2] | 3.03 ± 0.053 | 2.75 ± 0.063 | 2.69 ± 0.085 | 2.46 ± 0.054
AAELLDKRIVISIDSWP [DIS3] | 1.61 ± 0.062 | 1.87 ± 0.09 | 1.55 ± 0.14 | 1.95 ± 0.072
APPLENENSNCLLSIPK [YML103C/NUP188] | 1.86 ± 0.058 | 1.92 ± 0.057 | 1.65 ± 0.16 | 1.71 ± 0.059
LTSDLVYFGDENKVMLP [RRI2] | 3.21 ± 0.093 | 3.34 ± 0.089 | 3.07 ± 0.076 | 3.03 ± 0.068
CTSLMDIIVAIKIFELK [IRR1] | 2.1 ± 0.2 | 1.41 ± 0.16 | 2.13 ± 0.16 | 1.36 ± 0.072

Sequence | protein stability index (doa10∆) | protein stability index (pdr5∆) | protein stability index (san1∆) | protein stability index (ubr1∆)
QLLMGDIPELSFFHQSN [RPN3] | 2.43 ± 0.067 | 2.2 ± 0.054 | 2.39 ± 0.077 | 2.62 ± 0.039
YGFKQEIFDVTSNGLKK [FAS1] | 2.98 ± 0.12 | 3.3 ± 0.083 | 2.61 ± 0.085 | 2.89 ± 0.047
QIPTVSSPLGFEETKLS [SIR4] | 3.06 ± 0.12 | 3.05 ± 0.17 | 2.63 ± 0.14 | 2.9 ± 0.081
FGHLKLALPVFHIGYFK [RPO31] | 1.17 ± 0.073 | 1.22 ± 0.062 | 1.24 ± 0.13 | 1.13 ± 0.043
QKGITSYAVSPYAQKPL [QCR8] | 2.92 ± 0.13 | 3.05 ± 0.14 | 2.92 ± 0.063 | 3.13 ± 0.089
NTSAKNKNGENKKIGKR [SIR4] | 3.02 ± 0.27 | 3.19 ± 0.14 | 3.03 ± 0.21 | –
SFYRVEKIKKINYHQYI [SSN2] | 1.18 ± 0.081 | 1.36 ± 0.06 | 1.39 ± 0.2 | 1.62 ± 0.1
AAPAGVAGGVAGGEAGE [RPP1A] | 1.91 ± 0.16 | 1.8 ± 0.18 | 1.66 ± 0.28 | –
VPATAAPGTEAGIVPVS [SWI1] | 3.1 ± 0.069 | 3 ± 0.084 | 3.14 ± 0.066 | 3.15 ± 0.07
PYPKSRYNRAVPDSKIR [RPL10] | 3.03 ± 0.049 | 3.19 ± 0.052 | 3.05 ± 0.043 | 3.04 ± 0.048
NSIYCPTQTVAELDLMS [RPN6] | 2.55 ± 0.071 | 1.72 ± 0.071 | 1.39 ± 0.11 | 1.53 ± 0.074
DYPSTSLDIRHDFIKGL [NUT1] | 2.9 ± 0.14 | 2.88 ± 0.076 | 3.14 ± 0.057 | 2.56 ± 0.062
ESGEFDFDLFKEVLPDL [YJL039C/NUP192] | 3.43 ± 0.13 | 3.26 ± 0.092 | 3.17 ± 0.063 | 3.23 ± 0.079
DSQIVTPGELVTDDPIW [RRP4] | 2.78 ± 0.19 | 3.07 ± 0.11 | 2.76 ± 0.095 | 2.94 ± 0.077
VAADGKLVTYIVKFKQK [YLR335W/NUP2] | 2.17 ± 0.059 | 2.11 ± 0.054 | 2.09 ± 0.064 | 2.02 ± 0.05
QSQQAQPSDVMFNDLNS [MED2] | 3.1 ± 0.057 | 3.37 ± 0.078 | 3.44 ± 0.063 | 3.11 ± 0.095
LRPLFTRYELYIKNILE [YLR335W/NUP2] | 1.6 ± 0.053 | 1.88 ± 0.044 | 1.8 ± 0.081 | 1.93 ± 0.033
FVKGISRDIKALQDSLF [YML103C/NUP188] | 2.25 ± 0.071 | 2.18 ± 0.058 | 1.97 ± 0.096 | 1.7 ± 0.043
YVQVRQPIFVAHTAGRY [RPS5] | 1.7 ± 0.064 | 1.84 ± 0.059 | 1.89 ± 0.11 | 1.74 ± 0.068
YVDFVPMYKELWINYIK [POP4] | 2.33 ± 0.065 | 2.42 ± 0.056 | 2.62 ± 0.068 | 2.7 ± 0.047
KLQKYGAAVRLTGSDRV [RPN7] | – | 3.62 ± 0.27 | – | 2.99 ± 0.14
VTDNKTPEMNVTNNVEE [TAF14] | 3.28 ± 0.17 | 3.27 ± 0.12 | 3.35 ± 0.13 | 3.2 ± 0.17
CSPWSLQISDIPAAGNN [SRB5] | 2.07 ± 0.04 | 2.21 ± 0.04 | 1.96 ± 0.055 | 2.41 ± 0.032
KSLESQRYVKSVKSVKF [RPC34] | 1.26 ± 0.081 | 1.61 ± 0.058 | 2.16 ± 0.098 | 1.55 ± 0.084
FENCYLEGNDIHALAAK [FAS1] | 2.83 ± 0.053 | 3.06 ± 0.049 | 2.88 ± 0.044 | 2.69 ± 0.041
SLEDPQVRKKQIETINF [YDL116W/NUP84] | 1.72 ± 0.12 | 1.82 ± 0.088 | 2.19 ± 0.11 | 2.23 ± 0.19
